Measurements as given in patent US20240336907A1, “NOVEL ENDO-ß-N-ACETYLGLUCOSAMINIDASE” (priority 2020, published 2024).
Where a chain is given by its changes, count along the chain named. Numbers in names are those of the source.

B1: Endo-Si T190Q/D241M (protein)
chain: MNKRLLVKRTFGCVCAAAILGVAPLSHPTIVEAREELKMPNGLEQSIADVEAKIDALTYLSKNSKDEFKHSMYEIPSNREHKPVSPKQALQNAKKADAQAERLAKMTIPKKEELKALEGPLYGGYFRTWQDKTSDPTETNKVNSFGELPKEVDLAFVFHDYTKDYSLFWEELATKQVPKLNKQGTRVIRQIPWRFLSGADHSDISADKEKFPNTEAGNKALAKAIVDEYVYKYNLDGLDIMIERDSVPKVNDKEDPEALARTVEVFKEIGKLIGANGADKSRLLIMDTTYTAEENPLIKETAQYLNLLLVQVYGFSGENGNYLHHKNILDETSSMEGRWQGYSKYIRPEQYMVGFSFYEEKDFNNRWKDINEEDPSDPHIGEKIQGTRAERYAKWQPKTGGLKGGLFSYAIDRDGVAQPKQKTEHPELDKIVKSEYKVSKALKKLMMTDDQYQPIDQSDFPDKALRESIIKQVGTRRGDLERFKGTLRLDNPEIKDLTGLNKLKRVAKLELINLPKITKIDKDDLPQNLKPLTDNQKSNLEIKGTYDDSKLYKDIPAFDLVISGLSGLESLDISGHQRDTLSGIDASTLPSLKAINISDNHFDLAQGTENRHILDTILATLAKNGASTASFDKQKPKGLYPESYSTAPLHLQVGQGKINVIDDLIFGTRTNQNTLINTENDFEAYKEQTIQGKPFIAPDYLYDNFKVSYKEYSASIVDSTLAETTDKTIDTAKAETYQVTVSNKDGKTVHSVKVIVGDEKPMMVNLAQDAKIIGTDNMTQSAKVFDGQKDQFLLSWNKDSSVIFELKTPGTAKHWRFFDDGKNDSVTLSVFKGDASNFETEKDKAENWVEITKDSRKNDDKVFSSPLEVDNAKYLKVTIKKEAKYIYFNELQILGYPGVVAKKTADDLRPTEADKSDDKSDKNDTEAK
modifications: Amino acid sequence of Endo-Si T190Q/D241M
B2: Endo-Si D241M (protein)
chain: B1 chain with Q190T
modifications: Amino acid sequence of Endo-Si D241M
B3: Endo-Si D241Q/E360Q (protein)
chain: B1 chain with Q190T, M241Q, E360Q
modifications: Amino acid sequence of Endo-Si D241Q/E360Q
B4: Endo-Si D241Q/Q311L (protein)
chain: B1 chain with Q190T, M241Q, Q311L
modifications: Amino acid sequence of Endo-Si D241Q/Q311L
B5: Endo-Si D241Q (protein)
chain: B1 chain with Q190T, M241Q
modifications: Amino acid sequence of Endo-Si D241Q
B6: Endo-Rp W278F/N172D/F307Y (protein)
chain: MPSLQLQPDDKLAPVSFALKSMNELRDWTPDEKIKFNVSSVALQPRVKNALKPQLLLTHDMAGGYKEDKNIQGNNYKDIYNIQYWHLADTFVYFSHERVSIPPVNWTNACHRNGVKCLGTFLVEGNNQMHEMEALLHGPPLLNNTDDPMRLWSPYYADQLVAIAKHYGFDGWLFDIECEFFPFPTNPKFKAEELAKFLHYFKEKLHNEIPGSQLIWYDSMTNEGEIHWQNQLTWKNELFFKNTDGIFLNYWWKKEYPEMARRVAEGIGRSGLEVYFGTDVFGRHTYGGGGFKSYKGVKTAYSAMTSSALYGMAWTYEHFEKSEFEKMDRLFWCGGKYSDYPPPPPKNPDDEKEVESDDSEDELMYGHKKGIADTVESIPVPGTDWFVTNFDRGFGNRFYYRGKRLLSQPWSHLSHQAILPNKSYRNPEIYPTDQNIKITSSLDCDHGAFLGGTSLIIKGQRFNHRESHDVETEISIPLYKLSLDASKGCSLRYIYRTLLMKDVKLTVACHFSLKTNDSVNFFKVWQPDENFSFEYDDGMRATVTTENSTESRCFLLRTTEEDTGENDWITKTINVPAVPEGSQLYITRLEVSVVLDTAGLVGLVNQVIACLGYISIIPTINSGIKTDSSRIIQDLFWKDQKYTKIGKESLDDIAQEEVHRYYGTLNWENTANVVNAWEEIDYYNVFYKESDDSATRIFLGTAFCNQFRVSGLDIILSKLPKIVIEAVNKEGYISSSGSIDLSLN
B7: Endo-Rp W278F/N172D/A310D (protein)
chain: B6 chain with Y310F, A313D
B8: Endo-Rp W278F/N172D/F307H (protein)
chain: B6 chain with Y310H

What was measured:
Assay type in all cases: biochemical
[1] = tested on: (Fucα1,6)GlcNAc-mAb2; assay: Transglycosylation activity with SGP as donor, in combination with Endo-M N175Q; conditions: donor SGP (50 eq.), Endo-M N175Q 2.5 mU, Endo-Si enzyme 10 μg, 23° C., pH 7.5
Protocol: Transglycosylation activity was evaluated as follows. A 50 mM (sodium) phosphate buffer (pH 7.5) solution (17 μL) containing (Fucα1,6)GlcNAc-mAb2 (0.5 mg), SGP (0.485 mg (50 eq.)), Endo-M N175Q (manufactured by Tokyo Kasei Kogyo Co., Ltd.) (2.5 mU) and each of various Endo-Si mutant enzymes (10 μg), was prepared and incubated at 23° C. A sample was taken from each of the reaction solutions at 2, 4, 6, 24, and 48 hours after initiation of the reaction and analyzed for protein by a fully automated electrophoresis system as mentioned above. In the chromatogram obtained, an unreacted product and a transglycosylated molecule, mAb2-(SG)2 are confirmed as discrete peaks. The transglycosylation rates were obtained based on the peak area ratio between the unreacted product and the transglycosylated molecule in accordance with the following expression.
Similarly, transglycosylation rates of individual Endo-Si mutant enzymes at each time period of a reaction were calculated (Table 6).

[2] = tested on: (Fucα1,6)GlcNAc-mAb2; assay: Transglycosylation activity with sugar chain oxazoline [N3-PEG(3)]-MSG1(9)-Ox as donor; conditions: donor [N3-PEG(3)]-MSG1(9)-Ox (8 eq.), enzyme 1.25 μg, 28° C., pH 7.5
Protocol: Transglycosylation activity was evaluated as follows. […] A sample was taken from each of the reaction solutions at 1, 2, 4, 6, and 24 hours after initiation of the reaction and analyzed for protein by a fully automated electrophoresis system as mentioned above. In the chromatogram obtained, an unreacted product and transglycosylated molecule, mAb2-(MSG1-N3)2 were confirmed as discrete peaks. The transglycosylation rate was calculated based on the peak-area ratio between the unreacted product and the transglycosylated molecule in accordance with the following expression.
Transglycosylation rate (%)=[[peak area of mAb2-(MSG1-N3)2-derived H chain]/{[peak area of (Fucα1,6)GlcNAc-mAb2-derived H chain]+[peak area of mAb2-(MSG1-N3)2-derived H chain]}]×100
Similarly, the transglycosylation rates of individual Endo-Si mutant enzymes at each time period for a reaction were calculated (Table 5).

[3] = tested on: (Fucα1,6)GlcNAc-mAb2; assay: One-pot method: Endo-Rp mutant enzymes (enzyme A) combined with Endo-Si D241Q, SGP donor; conditions: Endo-Rp mutant enzyme 8 μg with Endo-Si D241Q 5 μg, SGP (50 eq.), 28° C., pH 7.5
Protocol: Using Endo-Rp, which is known to transfer a sugar chain from a sugar chain donor, SGP, to a GlcNAc derivative, as a representative of enzyme A, the property of enzyme A that can be used in combination with Endo-Si was investigated.
The transglycosylation activity on an antibody by the one-pot method was evaluated as follows. A 50 mM (sodium) phosphorate buffer (pH 7.5) solution (17 μL) containing (Fucα1,6)GlcNAc-mAb2 (0.5 mg), SGP (0.485 mg (50 eq.)), Endo-M N175Q (manufactured by Tokyo Kasei Kogyo Co., Ltd.) (2.5 mU) or each of various Endo-Rp mutant enzymes (8 μg) and Endo-Si D241Q (5 μg) was prepared and incubated at 28° C. A sample was taken from each of the reaction solutions at 2, 4, 6, 24, and 48 hours after initiation of the reaction and analyzed for protein by a fully automated electrophoresis system as mentioned above. In the chromatogram obtained, the transglycosylation rate was calculated in accordance with the formula for computation described in Example 5.

Molecule	Transglycosylation rate ([1]; 2 h) [%]	Transglycosylation rate ([1]; 4 h) [%]	Transglycosylation rate ([1]; 6 h) [%]	Transglycosylation rate ([1]; 24 h) [%]	Transglycosylation rate ([1]; 48 h) [%]	Transglycosylation rate ([2]; 1 h) [%]	Transglycosylation rate ([2]; 2 h) [%]	Transglycosylation rate ([2]; 4 h) [%]	Transglycosylation rate ([2]; 6 h) [%]	Transglycosylation rate ([2]; 24 h) [%]	Change in transglycosylation rate (%) with time ([3]; 2 h) [%]	Change in transglycosylation rate (%) with time ([3]; 4 h) [%]	Change in transglycosylation rate (%) with time ([3]; 6 h) [%]	Change in transglycosylation rate (%) with time ([3]; 24 h) [%]	Change in transglycosylation rate (%) with time ([3]; 48 h) [%]
B1	3.1	6.4	13.8	50.7	77.5	43.5	64.1	92.7	98.7	99.6					
B2	12.8	27.9	40.5	96.5	96.8	98.8	98.9	97.4	97.5	75.0					
B3	8.9	20.0	30.3	94.4	98.5	73.5	96.8	99.0	99.6	98.9					
B4	2.6	5.6	8.2	48.6	76.3	5.7	11.6	27.4	44.4	99.3					
B5	15.9	35.6	52.3	98.1	98.5	75.2	97.0	99.1	99.6	98.8					
B6											12.0	19.0	24.9	76.5	93.1
B7											0.0	0.0	0.0	8.5	17.0
B8											8.8	13.4	17.7	66.1	91.1
